Sequences and labels used below:
B1: AS179723 scFv-mIgG2aFc (Fc fusion, not shown: a dimerising Fc or GST)
chain: QAGLTQPPSMSGSPRQSVTISCTGSSNNIGGNYVNWYQHLPGTAPKLLIYDNKNRPSGVPEQISGSKSGSSASLTITGLQAEDEGDYYCASWDDSLSAVVFGGGTHLTVLGGGGSGGGGSGGGGSEVQLVESGGGLVQPGGSLRLSCAASGFTFLNYAMSWVRQAPGKGLEWVSSNSGAGSTYYSDSVKGRFTISRDYAKNVVYLQLNSLKTEDTGMYYCAKGTNVGSWSSLHYWGQGTQVTVSS
notes: Camel scFv; i647-labelled for flow cytometry
B2: AS170036 scFv-mIgG2aFc (Fc fusion, not shown: a dimerising Fc or GST)
chain: QLVLTQPSSVSGTPGQTVTISCAGTSSDVGSENYVSWYRQLPGTAPKLLIYQVNKRASGIADRFSGSKSGNTASMTISGLQSADEADYYCASYRSSDHNIVFGGGTHLTVLGGGGSGGGGSGGGGSAVQLVESGGGLVQPGGSLRLSCTASGFTFSSYAMSWVRQAPGKGLEWVSTINSGTGSPYYADSVKGRFTISRDNAKNTLYLQLNSLKTEDTAMYYCAKNFFDGSWFLGPPAMDYWGKGTLVTISS
notes: Camel scFv
B3: AS170036 VL1VH1 scFv-mIgG2aFc (Fc fusion, not shown: a dimerising Fc or GST)
chain: QSALTQPRSVSGSPGQSVTISCAGTSSDVGSENYVSWYQQHPGKAPKLMIYQVNKRASGVPDRFSGSKSGNTASLTISGLQAEDEADYYCASYRSSDHNIVFGGGTKLTVLGGGGSGGGGSGGGGSEVQLVESGGGLVQPGGSLRLSCAASGFTFSSYAMSWVRQAPGKGLEWVSTINSGTGSPYYADSVKGRFTISRDNSKNTLYLQMNSLRAEDTAVYYCAKNFFDGSWFLGPPAMDYWGQGTLVTVSS
notes: Humanized
B4: AS179732 scFv-mIgG2aFc (Fc fusion, not shown: a dimerising Fc or GST)
chain: B1 chain with Q1N, A2F, G3M, N27S, K53S, P56A, Q62R, I63F, A98G, V99A
notes: as for B1
B5: AS167830 sdAb-mIgG2aFc (Fc fusion, not shown: a dimerising Fc or GST)
chain: QVKLVESGGGSVQAGGSLRLSCAASRSSEYMNRRFCMGWFRQASGKEREGVAVVYIGGGRTYYADSVKGRFTISQDNAKNTLYLQMNNLKPEDTAMYYCTADVDPYESSWSRDLGYWGQGTQVTVSS
notes: i647-labelled for flow cytometry
B6: ET1402L1 scFv fused to a C-terminal mouse IgG2a Fc region (Fc fusion, not shown: a dimerising Fc or GST)
chain: QSVLTQPASVSGSPGQSITISCTGTSSDVGGYNYVSWYQQHPGKAPKLMIYDVNNRPSEVSNRFSGSKSGNTASLTISGLQAEDEADYYCSSYTTGSRAVFGGGTKLTVLGGGGSGGGGSGGGGSEVQLVQSGAEVKKPGESLTISCKASGYSFPNYWITWVRQMSGGGLEWMGRIDPGDSYTTYNPSFQGHVTISIDKSTNTAYLHWNSLKASDTAMYYCARYYVSLVDIWGQGTLVTVSS
notes: also called positive control antibody

Substitutions are numbered along the chain they refer to.

For one assay, the target named is T1, AFP158/HLA-A*02:01 complex (human).
T1 construct: biotinylated on the BSP by BirA for ELISA and panning; also called biotinylated AFP158/HLA-A*02:01 complex; Bio-AFP158
Put plainly: SPR, scFv-mIgG2aFc from supernatant captured, complex as analyte. For orientation: SPR reads the build-up and loss of mass on a sensor chip optically.
Description: (§1) The binding affinity between selected antibodies and AFP158/HLA-A*02:01 complex was determined by surface plasmon resonance (SPR) on a BIAcore T200 instrument (GE Healthcare). The experiment was carried out as follows. The purified sdAb/scFv-mIgG2aFc protein were captured through mIgG2a-Fc onto the sensorchip. […] On-rate (kₐ) and off-rate (kd) were calculated based on association and dissociation curve, and were used to estimate the equilibrium dissociation constant (KD).
(§2) Humanized heavy chains and light chains were combined, and used to produce a series of humanized antibodies. These antibodies were synthesized as scFv-mIgG2aFc and transiently produced using HEK293 cells. The antibodies in the supernatant were subjected to SPR affinity assessment.
One may read the Kd as the equilibrium constant for the complex coming apart. A low value points to a tighter complex. What is called koff is a measure of how fast the partners let go of each other. For orientation: kon means the rate constant with which the complex forms. Consider B1, for which the Kd is 28 nM, the koff was 0.0041 s⁻¹ and the kon is 150000 M⁻¹ s⁻¹.

Another assay deals with T2, ATG9A peptide loaded T2 cells (human, UniProt P61769 21-119).
T2 construct: whole, on cells; also called ATG9A/T2
Description: flow cytometry, peptide-loaded T2 cells.
With B2, the binding result is on record as “no binding (tested: 30 or 50 nM)”.

Regarding B3, the binding result is listed as “no binding (tested: 30 or 50 nM)”.

Turning to B1, the binding result is listed as “no binding (tested: 30 or 50 nM)”.

Consider B4, for which the binding result is listed as “no binding (tested: 30 or 50 nM)”.

As for B5, the binding result is given as “no binding (tested: 30 or 50 nM)”.

A further assay has as its target T3, CDC14A peptide loaded T2 cells (human, UniProt P61769 21-119).
T3 construct: whole, on cells; also called CDC14A/T2
Description: flow cytometry, peptide-loaded T2 cells.
On to B2, for which the binding result is “no binding (tested: 30 or 50 nM)”.

For the molecule B3, the binding result is “no binding (tested: 30 or 50 nM)”.

As to B1, the binding result is reported as “no binding (tested: 30 or 50 nM)”.

Take B4: the binding result is reported as “no binding (tested: 30 or 50 nM)”.

B5: the binding result was “no binding (tested: 30 or 50 nM)”.

In another assay the target is T4, OR51B6 peptide loaded T2 cells (human, UniProt P61769 21-119).
T4 construct: whole, on cells; also called OR51B6/T2
Description: flow cytometry, peptide-loaded T2 cells. (In general: In flow cytometry, cells or beads pass a laser one at a time.)
As for B2, the binding result is listed as “no binding (tested: 30 or 50 nM)”.

Turning to B3, the binding result is “no binding (tested: 30 or 50 nM)”.

In the case of B1, the binding result was “no binding (tested: 30 or 50 nM)”.

With B4, the binding result is recorded as “no binding (tested: 30 or 50 nM)”.

On to B5, for which the binding result was “no binding (tested: 30 or 50 nM)”.

In another assay the target is T5, ARNTL peptide loaded T2 cells (human, UniProt P61769 21-119).
T5 construct: whole, on cells; also called ARNTL/T2
Put plainly: flow cytometry, peptide-loaded T2 cells.
Regarding B2, the binding result is on record as “no binding (tested: 30 or 50 nM)”.

Turning to B3, the binding result was “no binding (tested: 30 or 50 nM)”.

For the molecule B1, the binding result is “no binding (tested: 30 or 50 nM)”.

Turning to B4, the binding result is reported as “no binding (tested: 30 or 50 nM)”.

For B5, the binding result is “no binding (tested: 30 or 50 nM)”.

The target in a further assay is T6, ZNF566 peptide loaded T2 cells (human, UniProt P61769 21-119).
T6 construct: whole, on cells; also called ZNF566/T2
Put plainly: flow cytometry, peptide-loaded T2 cells.
As to B2, the binding result was “no binding (tested: 30 or 50 nM)”.

Take B3: the binding result was “no binding (tested: 30 or 50 nM)”.

Regarding B1, the binding result is reported as “no binding (tested: 30 or 50 nM)”.

Regarding B4, the binding result was “no binding (tested: 30 or 50 nM)”.

On to B5, for which the binding result is on record as “no binding (tested: 30 or 50 nM)”.

For a further assay, the target named is T7, RP1 peptide loaded T2 cells (human, UniProt P61769 21-119).
T7 construct: whole, on cells; also called RP1/T2
Description: flow cytometry, peptide-loaded T2 cells.
As to B2, the binding result is “no binding (tested: 30 or 50 nM)”.

In the case of B3, the binding result is reported as “no binding (tested: 30 or 50 nM)”.

Turning to B1, the binding result is “no binding (tested: 30 or 50 nM)”.

In the case of B4, the binding result is “no binding (tested: 30 or 50 nM)”.

On to B5, for which the binding result is listed as “no binding (tested: 30 or 50 nM)”.

The target in a further assay is T8, NR2E1 peptide loaded T2 cells (human, UniProt P61769 21-119).
T8 construct: whole, on cells; also called NR2E1/T2
Put plainly: flow cytometry, peptide-loaded T2 cells.
For B2, the binding result is on record as “no binding (tested: 30 or 50 nM)”.

Turning to B3, the binding result is “no binding (tested: 30 or 50 nM)”.

Regarding B1, the binding result was “no binding (tested: 30 or 50 nM)”.

As for B4, the binding result was “no binding (tested: 30 or 50 nM)”.

On to B5, for which the binding result is given as “no binding (tested: 30 or 50 nM)”.

The target of another assay is T9, RCL1 peptide loaded T2 cells (human).
T9 construct: whole, on cells; also called RCL1/T2
Put plainly: flow cytometry, peptide-loaded T2 cells.
On to B2, for which the binding result was “no binding (tested: 30 or 50 nM)”.

Regarding B3, the binding result is “no binding (tested: 30 or 50 nM)”.

B1: the binding result is “no binding (tested: 30 or 50 nM)”.

Consider B4, for which the binding result is listed as “no binding (tested: 30 or 50 nM)”.

Regarding B5, the binding result is “no binding (tested: 30 or 50 nM)”.

The next assay has as its target T10, BRCA2 peptide loaded T2 cells (human).
T10 construct: whole, on cells; also called BRCA2/T2
Put plainly: flow cytometry, peptide-loaded T2 cells.
On to B2, for which the binding result is “no binding (tested: 30 or 50 nM)”.

Turning to B3, the binding result is on record as “no binding (tested: 30 or 50 nM)”.

On to B1, for which the binding result is “no binding (tested: 30 or 50 nM)”.

On to B4, for which the binding result is reported as “no binding (tested: 30 or 50 nM)”.

On to B5, for which the binding result was “no binding (tested: 30 or 50 nM)”.

A further assay deals with T11, PTP4A1 peptide loaded T2 cells (human, UniProt P61769 21-119).
T11 construct: whole, on cells; also called PTP4A1-pulsed T2 cells
Description: flow cytometry, peptide-loaded T2 cells.
As to B2, the binding result is given as “no binding (tested: 30 or 50 nM)”.

B3: the binding result is “no binding (tested: 30 or 50 nM)”.

As to B1, the binding result is “no binding (tested: 30 or 50 nM)”.

As to B4, the binding result was “no binding (tested: 30 or 50 nM)”.

Regarding B5, the binding result was “no binding (tested: 30 or 50 nM)”.

The target in the next assay is T12, OR6C1 peptide loaded T2 cells (human, UniProt P61769 21-119).
T12 construct: whole, on cells; also called OR6C1/T2
Description: flow cytometry, peptide-loaded T2 cells.
B2: the binding result is “no binding (tested: 30 or 50 nM)”.

For the molecule B3, the binding result was “no binding (tested: 30 or 50 nM)”.

Turning to B1, the binding result is “no binding (tested: 30 or 50 nM)”.

As for B4, the binding result is on record as “no binding (tested: 30 or 50 nM)”.

Consider B5, for which the binding result was “no binding (tested: 30 or 50 nM)”.

For the next assay, the target named is T13, OR1I1 peptide loaded T2 cells (human, UniProt P61769 21-119).
T13 construct: whole, on cells; also called OR1I1/T2
Put plainly: flow cytometry, peptide-loaded T2 cells.
Consider B2, for which the binding result is “no binding (tested: 30 or 50 nM)”.

Turning to B3, the binding result is on record as “no binding (tested: 30 or 50 nM)”.

For the molecule B1, the binding result was “no binding (tested: 30 or 50 nM)”.

Regarding B4, the binding result is reported as “no binding (tested: 30 or 50 nM)”.

With B5, the binding result was “no binding (tested: 30 or 50 nM)”.

Another assay deals with T1, AFP158/HLA-A*02:01 complex. Put plainly: SPR, antibody captured via mIgG2a-Fc, complex as analyte.
Description: as §1
Molecule B2 showed a Kd of 250 nM, a koff of 0.06 s⁻¹ and a kon of 240000 M⁻¹ s⁻¹.

Molecule B1 showed a Kd of 39 nM, a koff of 0.0042 s⁻¹ and a kon of 110000 M⁻¹ s⁻¹.

In turn, B4 came in with a Kd of 67 nM, a koff of 0.0086 s⁻¹ and a kon of 130000 M⁻¹ s⁻¹.

As for B5, binding was put at a Kd of 260 nM, the koff came to 0.07 s⁻¹ and the kon is 270000 M⁻¹ s⁻¹.

A further assay deals with T11, PTP4A1 peptide loaded T2 cells. Put plainly: flow cytometry, 30 or 50 nM i647-labelled antibody.
Description: At the concentration of 30 or 50 nM, binding of 7 antibodies to T2 cells loaded with AFP158, 50 endogenous self-peptides and 12 homologous peptides were carried out using flow cytometry.
Regarding B6, the binding result is given as “binds”.

For a further assay, the target named is T1, AFP158/HLA-A*02:01 complex. Description: SPR, scFv-mIgG2aFc from supernatant captured, complex as analyte. The source holds these as a separate data set.
Description: as §1, §2
With B4, binding was put at a Kd of 47 nM, the koff turned out to be 0.0075 s⁻¹ and the kon turned out to be 160000 M⁻¹ s⁻¹.

In the next assay the target is T1, AFP158/HLA-A*02:01 complex. The description is as above. The source holds these as a separate data set.
Description: as §1, §2
The molecule B2 had a Kd of 450 nM, a koff of 0.19 s⁻¹ and a kon of 430000 M⁻¹ s⁻¹.

As to B3, binding was put at a Kd of 360 nM, the koff amounted to 0.062 s⁻¹ and the kon was found to be 170000 M⁻¹ s⁻¹.

(Values after US20240279318A1 (NANJING LEGEND BIOTECH, published 2024).)
